As a reminder, the IC50 is the midpoint of a concentration-inhibition curve. A lower IC50 goes with inhibition by little substance.

Among the targets are HIV-1 protease (HIV-1); porcine pepsin (porcine, UniProt P00791 60-385); human cathepsin D (human, UniProt P07339 65-412).
What all share (experiment): cell-based or functional assay
Experiment [1] concerns the target T1, schistosome legumain SmAE (Schistosoma mansoni asparaginyl endopeptidase) (Schistosoma mansoni, UniProt P09841 32-291).
T1 sequence (looked up): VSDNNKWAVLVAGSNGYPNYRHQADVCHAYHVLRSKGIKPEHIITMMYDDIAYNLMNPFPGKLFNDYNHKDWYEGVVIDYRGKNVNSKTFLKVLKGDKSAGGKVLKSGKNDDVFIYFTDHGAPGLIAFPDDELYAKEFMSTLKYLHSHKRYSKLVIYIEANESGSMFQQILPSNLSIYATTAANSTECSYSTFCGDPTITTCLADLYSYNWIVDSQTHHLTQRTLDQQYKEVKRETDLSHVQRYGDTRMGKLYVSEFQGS

For a further experiment, the target named is T2, caspase-3 (UniProt P42574 29-277, limits assumed).
T2 sequence (looked up): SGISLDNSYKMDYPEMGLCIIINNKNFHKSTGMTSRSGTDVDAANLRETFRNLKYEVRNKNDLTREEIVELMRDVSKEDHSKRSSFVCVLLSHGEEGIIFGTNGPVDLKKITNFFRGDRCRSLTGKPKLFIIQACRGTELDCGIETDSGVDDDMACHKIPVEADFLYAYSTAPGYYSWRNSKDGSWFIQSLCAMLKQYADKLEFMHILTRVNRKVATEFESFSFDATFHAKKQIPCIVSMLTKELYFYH

The target of another experiment is T3, caspase-6 (UniProt P55212 24-293, limits assumed).
T3 sequence (looked up): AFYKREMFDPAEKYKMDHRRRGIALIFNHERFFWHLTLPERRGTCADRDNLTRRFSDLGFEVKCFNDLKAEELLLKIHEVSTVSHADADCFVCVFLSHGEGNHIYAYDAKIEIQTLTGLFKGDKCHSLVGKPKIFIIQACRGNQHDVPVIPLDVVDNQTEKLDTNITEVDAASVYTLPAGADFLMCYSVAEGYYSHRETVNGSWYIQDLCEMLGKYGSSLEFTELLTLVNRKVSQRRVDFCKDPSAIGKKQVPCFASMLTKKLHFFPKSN

Experiment [2] addresses T4, autolytically stable caspase-1 variant (D381 E) (UniProt P29466 120-404, limits assumed).
T4 sequence (looked up): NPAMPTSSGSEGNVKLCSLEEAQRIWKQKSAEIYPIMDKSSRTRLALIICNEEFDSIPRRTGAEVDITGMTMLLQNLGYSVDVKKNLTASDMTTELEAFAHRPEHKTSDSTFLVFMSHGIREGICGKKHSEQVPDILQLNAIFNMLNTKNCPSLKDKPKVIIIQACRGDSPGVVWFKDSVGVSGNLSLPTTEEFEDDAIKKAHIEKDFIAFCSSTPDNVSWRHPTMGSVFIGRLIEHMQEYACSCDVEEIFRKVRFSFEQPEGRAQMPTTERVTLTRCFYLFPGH

The target of experiment [3] is plasmepsin 2 (from P. falciparum) (P. falciparum, UniProt P46925 125-453, limits assumed).
plasmepsin 2 (from P. falciparum), sequence (P46925 125-453 limits assumed): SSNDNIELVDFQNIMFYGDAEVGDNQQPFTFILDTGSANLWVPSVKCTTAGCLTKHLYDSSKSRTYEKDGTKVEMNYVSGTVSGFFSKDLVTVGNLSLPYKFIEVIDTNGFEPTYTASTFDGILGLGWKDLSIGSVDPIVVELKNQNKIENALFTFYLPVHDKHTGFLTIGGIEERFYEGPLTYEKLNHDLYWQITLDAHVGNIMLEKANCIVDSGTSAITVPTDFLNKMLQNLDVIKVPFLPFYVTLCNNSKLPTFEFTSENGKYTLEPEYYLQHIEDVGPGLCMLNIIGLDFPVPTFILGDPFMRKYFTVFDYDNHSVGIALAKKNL
Experiment [4] has as its target secreted aspartic proteinase 2 (SAP-2) from Candida albicans (Candida albicans).

Numbered stars: 1 amine (or outer) side, 2 acyl side, 3 side chain; on linkers, the order of the positions; unused ones are H or OH. Square brackets hold non-standard residues; d marks the D form. * marks the point of attachment. AAsn = aza-asparagine, NC(=O)CN(N[*:1])C(=O)[*:2]; AAsp = aza-Asp, O=C(N(CC(=O)[*:3])N[*:1])[*:2]; azaAsp = O=C(N(CC(=O)[*:3])N[*:1])[*:2]; PhPr = N-terminal cap as named (PhPr); azaAsn = NC(=O)CN(N[*:1])C(=O)[*:2]; (S,S)‑EP = not defined here; trans‑EP = not defined here; Cbz = O=C(OCc1ccccc1)*

human cathepsin D, sequence (P07339 65-412 limits assumed): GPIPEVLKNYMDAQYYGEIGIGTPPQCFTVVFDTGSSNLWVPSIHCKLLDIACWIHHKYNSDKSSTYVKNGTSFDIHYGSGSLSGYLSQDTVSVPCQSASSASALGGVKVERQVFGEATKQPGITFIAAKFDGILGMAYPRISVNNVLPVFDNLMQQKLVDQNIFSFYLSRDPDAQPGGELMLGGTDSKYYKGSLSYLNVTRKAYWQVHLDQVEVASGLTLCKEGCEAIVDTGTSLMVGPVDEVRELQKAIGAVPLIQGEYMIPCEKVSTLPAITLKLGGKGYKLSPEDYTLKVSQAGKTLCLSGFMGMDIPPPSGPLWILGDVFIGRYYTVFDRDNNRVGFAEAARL
porcine pepsin, sequence (P00791 60-385 limits assumed): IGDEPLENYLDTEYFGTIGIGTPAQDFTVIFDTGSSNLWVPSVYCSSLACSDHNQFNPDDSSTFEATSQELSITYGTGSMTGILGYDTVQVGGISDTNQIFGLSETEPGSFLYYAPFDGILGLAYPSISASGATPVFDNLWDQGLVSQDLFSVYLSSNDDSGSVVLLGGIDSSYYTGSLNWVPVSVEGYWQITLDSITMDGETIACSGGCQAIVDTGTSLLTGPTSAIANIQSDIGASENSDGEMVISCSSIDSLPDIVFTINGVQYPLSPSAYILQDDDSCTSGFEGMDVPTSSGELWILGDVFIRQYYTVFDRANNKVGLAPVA

Take Cbz-Ala-Ala-[AAsn]-{(S,S)‑EP-CON(CH3)CH2Ph} (reading uncertain; also: printed as Cbz-Ala-Ala-AAsn-(S, S)-EP-CON(CH3)CH2Ph) [Cbz-Ala-Ala-AAsn-(S, S)-EP-CON(CH3)CH2Ph]: the half-maximal inhibitory concentration (IC50) in experiment [1] was 63 nM.
Consider Cbz-IET[azaAsp]-{(2S,3S)‑EP‑CON(CH2Ph)2} [Cbz-Ile-Glu-Thr-AAsp-(2S,3S)-EP-CON(CH2Ph)2], for which the k2 was 3550 M⁻¹ s⁻¹ in the experiment with caspase-3 and 32000 M⁻¹ s⁻¹ with caspase-6.
On to PhPr-Val-Ala-[AAsp]-{(2S,3S)‑EP‑CON(CH2Ph)2} [PhPr-Val-Ala-AAsp-(2S,3S)-EP-CON(CH2Ph)2], for which the k2 with caspase-3 turned out to be 830 M⁻¹ s⁻¹; with caspase-6 it was 145 M⁻¹ s⁻¹; in experiment [2], 101000 M⁻¹ s⁻¹.
Cbz-Ala-Ala-[azaAsn]-{(2S,3S)‑EP‑COOEt} [Cbz-Ala-Ala-AAsn-(2S, 3S)-EP-COOEt]: the “inhibition of substrate hydrolysis” value (in [3]; in experiment [4]; with HIV-1 protease; with porcine pepsin; with human cathepsin D) was less than 20 % inhibition each time. This molecule displayed an IC50 in [1] of 53 nM.
In experiment [1], Cbz-Ala-Ala-[AAsn]-{(S,S)‑EP-COOCH2Ph} (reading uncertain; also: printed as Cbz-Ala-Ala-AAsn-(S, S)-EP-COOCH2Ph) [Cbz-Ala-Ala-AAsn-(S, S)-EP-COOCH2Ph] had an IC50 of 47 nM.
Same read-out and setting: under Cbz-Ala-Ala-[AAsn]-{trans‑EP-Ph‑4‑Cl} (reading uncertain; also: printed as Cbz-Ala-Ala-AAsn-(trans)-EP-Ph-4-Cl) [Cbz-Ala-Ala-AAsn-(trans)-EP-Ph-4-Cl] stands 90 nM; under Cbz-Ala-Ala-[AAsn]-{trans‑EP-CH2CH2Ph} (reading uncertain; also: printed as Cbz-Ala-Ala-AAsn-(trans)-EP-CH2CH2Ph) [Cbz-Ala-Ala-AAsn-(trans)-EP-CH2CH2Ph], 70 nM.
In [1], Cbz-Ala-Ala-[AAsn]-{(S,S)‑EP-COOCH2CH2Ph} (reading uncertain; also: printed as Cbz-Ala-Ala-AAsn-(S, S)-EP-COOCH2CH2Ph) [Cbz-Ala-Ala-AAsn-(S, S)-EP-COOCH2CH2Ph] came in with an IC50 of 45 nM.
For the molecule PhPr-Val-Ala-[AAsp]-{(2S,3S)‑EP‑CON(CH2CH2CH2CH3)2} [PhPr-Val-Ala-AAsp-(2S,3S)-EP-CON(CH2CH2CH2CH3)2], the k2 with caspase-3 was determined as 520 M⁻¹ s⁻¹; with caspase-6 it was 53 M⁻¹ s⁻¹; in [2], 26200 M⁻¹ s⁻¹.
In the case of PhPr-Val-Ala-[AAsp]-{(2S,3S)‑EP‑CON(CH3)CH2Ph} [PhPr-Val-Ala-AAsp-(2S,3S)-EP-CON(CH3)CH2Ph], the k2 with caspase-3 amounted to 1950 M⁻¹ s⁻¹; in the experiment with caspase-6 it was 136 M⁻¹ s⁻¹.
The molecule Cbz-Ala-Ala-[AAsn]-{(S,S)‑EP-CON(nBu)2} (reading uncertain; also: printed as Cbz-Ala-Ala-AAsn-(S, S)-EP-CON(nBu)2) [Cbz-Ala-Ala-AAsn-(S, S)-EP-CON(nBu)2] gave an IC50 in experiment [1] of 68 nM.
Regarding Cbz-IET[azaAsp]-{(2S,3S)‑EP‑CON(CH3)CH2Ph} [Cbz-Ile-Glu-Thr-AAsp-(2S,3S)-EP-CON(CH3)CH2Ph], the k2 stood at 4780 M⁻¹ s⁻¹ with caspase-3 and 47700 M⁻¹ s⁻¹ with caspase-6.

These data come from US20040048327A1 (GEORGIA TECH RESEARCH, published 2004).
